The assay addresses IFN-receptor expressed by 38C13 cells (mouse (endogenous in 38C13)) (UniProt P33896). Kind of assay: radioligand binding.
Sequence of UniProt P33896 (P33896 27-590, chain 1 of 2): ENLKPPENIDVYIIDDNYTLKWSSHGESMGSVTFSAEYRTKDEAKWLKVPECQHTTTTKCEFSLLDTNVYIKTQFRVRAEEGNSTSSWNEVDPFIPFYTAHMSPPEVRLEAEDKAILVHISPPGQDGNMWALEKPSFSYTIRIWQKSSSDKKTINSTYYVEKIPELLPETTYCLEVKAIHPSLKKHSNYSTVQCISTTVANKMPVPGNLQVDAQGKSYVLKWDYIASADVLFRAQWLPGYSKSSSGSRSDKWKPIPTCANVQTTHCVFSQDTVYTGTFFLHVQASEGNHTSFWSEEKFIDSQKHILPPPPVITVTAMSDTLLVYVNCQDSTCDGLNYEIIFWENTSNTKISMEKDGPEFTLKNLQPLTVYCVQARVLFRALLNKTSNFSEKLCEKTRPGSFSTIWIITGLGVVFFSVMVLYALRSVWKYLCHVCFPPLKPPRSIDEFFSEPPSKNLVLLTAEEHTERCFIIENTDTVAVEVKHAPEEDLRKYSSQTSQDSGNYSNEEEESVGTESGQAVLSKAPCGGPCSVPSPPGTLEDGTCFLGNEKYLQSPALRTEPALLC
Sequence of UniProt P33896 (O35664 22-513, chain 2 of 2, further chain): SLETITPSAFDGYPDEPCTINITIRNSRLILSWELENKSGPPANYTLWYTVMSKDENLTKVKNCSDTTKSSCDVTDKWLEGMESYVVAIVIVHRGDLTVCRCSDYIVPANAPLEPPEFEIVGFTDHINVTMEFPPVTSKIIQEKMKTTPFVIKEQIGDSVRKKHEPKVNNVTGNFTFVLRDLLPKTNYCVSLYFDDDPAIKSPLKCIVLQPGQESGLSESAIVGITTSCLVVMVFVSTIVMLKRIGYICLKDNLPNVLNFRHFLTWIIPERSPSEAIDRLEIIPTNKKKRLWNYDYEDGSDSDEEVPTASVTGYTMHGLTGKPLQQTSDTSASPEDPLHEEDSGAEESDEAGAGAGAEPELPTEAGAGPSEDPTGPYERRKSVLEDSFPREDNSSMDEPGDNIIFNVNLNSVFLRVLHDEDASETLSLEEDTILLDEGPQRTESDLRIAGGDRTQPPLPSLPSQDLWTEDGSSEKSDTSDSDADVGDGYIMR

“anti-CD20 rituximab-murine IFNα1 fusion protein (from UniProt P01572 24-189)” came in with a percent cell-bound activity of 44.6%.

These data come from article PMC8983440.
